Patent US20250076311A1 (Chugai, published 2025)
Values belong to the binder of their own block, whether it stands above or below them.

What was measured:
[1] = biological target: T1, cynomolgus monkey FcγRIIIaS extracellular domain with C-terminal His-tag (cynomolgus monkey, UniProt Q8SPW2 21-206 at identity 1.00)); experiment: SPR (Biacore), antibody captured, FcgR analyte
T1 construct: also called cyno FcgRIIIaS; cynoFcγRIIIaS
T1 chain: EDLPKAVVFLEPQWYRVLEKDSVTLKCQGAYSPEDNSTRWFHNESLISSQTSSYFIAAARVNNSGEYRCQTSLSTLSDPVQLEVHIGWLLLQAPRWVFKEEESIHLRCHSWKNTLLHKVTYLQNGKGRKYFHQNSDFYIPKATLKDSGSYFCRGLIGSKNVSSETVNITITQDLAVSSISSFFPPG

[2] = biological target: T2, cynomolgus monkey FcγRIIa1 extracellular domain with C-terminal His-tag (cynomolgus monkey); experiment: SPR (Biacore), KD of SG1 / KD of variant
T2 construct: also called cyno FcgRIIa1; cynoFcγRIIa1
T2 chain: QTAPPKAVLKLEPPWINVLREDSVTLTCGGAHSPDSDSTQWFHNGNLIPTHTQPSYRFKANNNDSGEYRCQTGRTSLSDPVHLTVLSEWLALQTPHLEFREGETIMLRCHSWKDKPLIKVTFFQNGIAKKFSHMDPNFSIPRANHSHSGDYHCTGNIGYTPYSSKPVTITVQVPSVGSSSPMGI

[3] = biological target: T3, human FcγRIIaH extracellular domain with C-terminal His-tag (human, UniProt P12318 34-217); experiment: SPR (Biacore), KD of SG1 / KD of variant
T3 construct: also called human FcgRIIaH; FcγRIIa (type H)
T3 sequence: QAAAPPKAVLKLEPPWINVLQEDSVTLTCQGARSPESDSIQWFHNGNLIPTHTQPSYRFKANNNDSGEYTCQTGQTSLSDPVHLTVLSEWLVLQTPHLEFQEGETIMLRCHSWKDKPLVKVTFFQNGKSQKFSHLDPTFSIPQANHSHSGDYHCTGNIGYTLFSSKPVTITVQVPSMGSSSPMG

[4] = biological target: T4, cynomolgus monkey FcγRIIb extracellular domain with C-terminal His-tag (cynomolgus monkey); experiment: SPR (Biacore), antibody captured, FcgR as analyte
T4 construct: also called cyno FcgRIIb; cynoFcγRIIb
T4 chain: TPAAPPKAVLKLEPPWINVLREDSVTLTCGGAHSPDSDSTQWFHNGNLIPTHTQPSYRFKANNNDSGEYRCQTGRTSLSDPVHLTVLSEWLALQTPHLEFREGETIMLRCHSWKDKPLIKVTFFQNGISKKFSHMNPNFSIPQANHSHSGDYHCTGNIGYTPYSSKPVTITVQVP

[5] = biological target: T5, human FcγRIIIaV extracellular domain with C-terminal His-tag (human, UniProt P08637 17-208); experiment: SPR (Biacore), antibody captured, FcgR as analyte
T5 construct: also called human FcgRIIIaV
T5 sequence (P08637 17-208 F176V): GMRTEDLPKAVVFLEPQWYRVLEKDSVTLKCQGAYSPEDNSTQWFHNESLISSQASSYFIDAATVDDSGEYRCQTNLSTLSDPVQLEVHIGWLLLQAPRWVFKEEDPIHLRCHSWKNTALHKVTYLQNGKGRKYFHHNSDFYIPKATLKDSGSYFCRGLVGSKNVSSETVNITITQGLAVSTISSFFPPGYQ

[6] = biological target: T6, human FcγRIIaR extracellular domain with C-terminal His-tag (human, UniProt P12318 34-217); experiment: SPR (Biacore), KD of SG1 divided by KD of variant
T6 construct: also called human FcgRIIaR; FcγRIIa (type R)
T6 chain: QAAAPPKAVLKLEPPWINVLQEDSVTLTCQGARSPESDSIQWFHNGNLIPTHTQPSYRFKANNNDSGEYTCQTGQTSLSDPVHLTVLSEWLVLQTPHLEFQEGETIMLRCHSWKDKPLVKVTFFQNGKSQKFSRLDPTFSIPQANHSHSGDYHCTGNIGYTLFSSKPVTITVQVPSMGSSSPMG
Method: (§1) The kinetic analysis of interactions between these antibodies and FcγR was carried out using BIACORE® T200 or BIACORE® 4000 (GE Healthcare). HBS-EP+ (GE Healthcare) was used as the running buffer, and the measurement temperature was set to 25° C. […] After the measurement, the antibody captured on the chip was washed off by allowing reaction with 10 mM glycine-HCl, pH1.5 and 25 mM NaOH so that the chip was regenerated and used repeatedly. The sensorgrams obtained as measurement results were analyzed by the 1:1 Langmuir binding model using the BIACORE® Evaluation Software to calculate the binding rate constant ka (L/mol/s) and dissociation rate constant kd (1/s), and the dissociation constant KD (mol/L) was calculated from these values. […] Regarding such interactions, KD values were calculated using the following 1:1 binding model described in BIACORE® T100 Software Handbook BR1006-48 Edition AE.

[7] = biological target: T4, cynomolgus monkey FcγRIIb extracellular …; experiment: SPR (Biacore), KD of SG1 divided by KD of variant
Method: as §1

B1: M103205H795-MY450/M103202L889-SK1 (antibody, human IgG1, kappa)
heavy: QVTLKESGPVLVKPTETLTLTCTVSGIDLSHDDISWVRQAPGKGLEWVGIISYAGSTYYASWAKGRLTISKDTSKNQVVLTMTNMDPVDTATYYCARGVPAYSHGGDLWGQGTLVTVSSASTKGPSVFPLAPSSKSTSGGTAALGCLVKDYFPEPVTVSWNSGALTSGVHTFPAVLQSSGLYSLSSVVTVPSSSLGTQTYICNVNHKPSNTKVDKKVEPKSCDKTHTCPPCPAMELLTGPSVFLFPPKPKDTLMISRTPEVTCVVVDVSDEDPEVKFNWYVDGVEVHNAKTKPREEQYNSTYRVVSVLTVLHQDWLNGKEYKCKVSNKALPKPIEKTISKAKGQPREPQVYTLPPSREEMTKNQVSLTCLVKGFYPSDIAVEWESNGQPENNYKTTPPVLDSDGSFFLYSKLTVDKSRWQQGNVFSCSVMHEALHNHYTQKSLSLSP
light: DIVMTQSPATLSLSPGERATLSCTSSQSVYHANWLSWFQQKPGQPPKLLIYWASTLAYGVPSRFSGSGSGTDFTLTISSLQPEDAATYYCAGGYGGGRYAFGQGTKVEIKRTVAAPSVFIFPPSDEQLKSGTASVVCLLNNFYPREAKVQWKVDNALQSGNSQESVTEQDSKDSTYSLSSTLTLSKADYEKHKVYACEVTHQGLSSPVTKSFNRGEC
notes: Substitutions in EU numbering on SG1
Kd [1]: 1300 nM
KD fold (SG1 = 1) [2]: 2.5 fold

B4: M103205H795-MY523 / M103202L889-SK1 (antibody, human IgG1, kappa, name in EU numbering)
heavy: QVTLKESGPVLVKPTETLTLTCTVSGIDLSHDDISWVRQAPGKGLEWVGIISYAGSTYYASWAKGRLTISKDTSKNQVVLTMTNMDPVDTATYYCARGVPAYSHGGDLWGQGTLVTVSSASTKGPSVFPLAPSSKSTSGGTAALGCLVKDYFPEPVTVSWNSGALTSGVHTFPAVLQSSGLYSLSSVVTVPSSSLGTQTYICNVNHKPSNTKVDKKVEPKSCDKTHTCPPCPGPELLTGPVVFLFPPKPKDTLMISRTPEVTCVVVDVSDEDPEVKFNWYVDGVEVHNAKTKPREELYNSTYRVVSVLTVLHQDWLNGKEYKCKVSNKALPKPIEKTISKAKGQPREPQVYTLPPSREEMTKNQVSLTCLVKGFYPSDIAVEWESNGQPENNYKTTPPVLDSDGSFFLYSKLTVDKSRWQQGNVFSCSVMHEALHNHYTQKSLSLSP
light: DIVMTQSPATLSLSPGERATLSCTSSQSVYHANWLSWFQQKPGQPPKLLIYWASTLAYGVPSRFSGSGSGTDFTLTISSLQPEDAATYYCAGGYGGGRYAFGQGTKVEIKRTVAAPSVFIFPPSDEQLKSGTASVVCLLNNFYPREAKVQWKVDNALQSGNSQESVTEQDSKDSTYSLSSTLTLSKADYEKHKVYACEVTHQGLSSPVTKSFNRGEC
Kd [4]: 480 nM
KD fold (SG1 = 1) [6]: 5.2 fold

B5: M103205H795-MY529 / M103202L889-SK1 (antibody, human IgG1, kappa, name in EU numbering)
heavy: QVTLKESGPVLVKPTETLTLTCTVSGIDLSHDDISWVRQAPGKGLEWVGIISYAGSTYYASWAKGRLTISKDTSKNQVVLTMTNMDPVDTATYYCARGVPAYSHGGDLWGQGTLVTVSSASTKGPSVFPLAPSSKSTSGGTAALGCLVKDYFPEPVTVSWNSGALTSGVHTFPAVLQSSGLYSLSSVVTVPSSSLGTQTYICNVNHKPSNTKVDKKVEPKSCDKTHTCPPCPAPEWLTGPSVFLFPPKPKDTLMISRTPEVTCVVVDVSDEDPEVKFNWYVDGVEVHNAKTKPREELYNSTYRVVSVLTVLHQDWLNGKEYKCKVSNKALPKPIEKTISKAKGQPREPQVYTLPPSREEMTKNQVSLTCLVKGFYPSDIAVEWESNGQPENNYKTTPPVLDSDGSFFLYSKLTVDKSRWQQGNVFSCSVMHEALHNHYTQKSLSLSP
light: DIVMTQSPATLSLSPGERATLSCTSSQSVYHANWLSWFQQKPGQPPKLLIYWASTLAYGVPSRFSGSGSGTDFTLTISSLQPEDAATYYCAGGYGGGRYAFGQGTKVEIKRTVAAPSVFIFPPSDEQLKSGTASVVCLLNNFYPREAKVQWKVDNALQSGNSQESVTEQDSKDSTYSLSSTLTLSKADYEKHKVYACEVTHQGLSSPVTKSFNRGEC
Kd [4]: 300 nM
KD fold (SG1 = 1) [7]: 5 fold

Now from value to binder:

Kd [1]: 2300 nM
KD fold (SG1 = 1) [3]: 2.8 fold
KD fold (SG1 = 1) [2]: 1.3 fold
B2: M103205H795-MY472/M103202L889-SK1 (antibody)
chain 1: QVTLKESGPVLVKPTETLTLTCTVSGIDLSHDDISWVRQAPGKGLEWVGIISYAGSTYYASWAKGRLTISKDTSKNQVVLTMTNMDPVDTATYYCARGVPAYSHGGDLWGQGTLVTVSSASTKGPSVFPLAPSSKSTSGGTAALGCLVKDYFPEPVTVSWNSGALTSGVHTFPAVLQSSGLYSLSSVVTVPSSSLGTQTYICNVNHKPSNTKVDKKVEPKSCDKTHTCPPCPSPELLTGPSVFLFPPKPKDTLMISRTPEVTCVVVDVSDEDPEVKFNWYVDGVEVHNAKTKPREEQYNSTYRVVSVLTVLHQDWLNGKEYKCKVSNKALPKPIEKTISKAKGQPREPQVYTLPPSREEMTKNQVSLTCLVKGFYPSDIAVEWESNGQPENNYKTTPPVLDSDGSFFLYSKLTVDKSRWQQGNVFSCSVMHEALHNHYTQKSLSLSP
chain 2: DIVMTQSPATLSLSPGERATLSCTSSQSVYHANWLSWFQQKPGQPPKLLIYWASTLAYGVPSRFSGSGSGTDFTLTISSLQPEDAATYYCAGGYGGGRYAFGQGTKVEIKRTVAAPSVFIFPPSDEQLKSGTASVVCLLNNFYPREAKVQWKVDNALQSGNSQESVTEQDSKDSTYSLSSTLTLSKADYEKHKVYACEVTHQGLSSPVTKSFNRGEC

Kd [4]: 1600 nM
Kd [5]: 2.4 nM
B3: M103205H795-MY388 (first row so labelled: G236L/H268D/Q295L/K326T/A330K) / M103202L889-SK1 (antibody, human IgG1, kappa, name in EU numbering)
heavy: QVTLKESGPVLVKPTETLTLTCTVSGIDLSHDDISWVRQAPGKGLEWVGIISYAGSTYYASWAKGRLTISKDTSKNQVVLTMTNMDPVDTATYYCARGVPAYSHGGDLWGQGTLVTVSSASTKGPSVFPLAPSSKSTSGGTAALGCLVKDYFPEPVTVSWNSGALTSGVHTFPAVLQSSGLYSLSSVVTVPSSSLGTQTYICNVNHKPSNTKVDKKVEPKSCDKTHTCPPCPAPELLLGPSVFLFPPKPKDTLMISRTPEVTCVVVDVSDEDPEVKFNWYVDGVEVHNAKTKPREELYNSTYRVVSVLTVLHQDWLNGKEYKCKVSNTALPKPIEKTISKAKGQPREPQVYTLPPSREEMTKNQVSLTCLVKGFYPSDIAVEWESNGQPENNYKTTPPVLDSDGSFFLYSKLTVDKSRWQQGNVFSCSVMHEALHNHYTQKSLSLSP
light: DIVMTQSPATLSLSPGERATLSCTSSQSVYHANWLSWFQQKPGQPPKLLIYWASTLAYGVPSRFSGSGSGTDFTLTISSLQPEDAATYYCAGGYGGGRYAFGQGTKVEIKRTVAAPSVFIFPPSDEQLKSGTASVVCLLNNFYPREAKVQWKVDNALQSGNSQESVTEQDSKDSTYSLSSTLTLSKADYEKHKVYACEVTHQGLSSPVTKSFNRGEC
notes: The label MY388 is printed for two different variants; also called MY388 (first of two rows with this label)
